The results in this text go back to the supplement of paper PMC10724198.

Data set [1] deals with Saccharomyces cerevisiae. Description: protein stability index of tFT-peptide fusion (C-terminal peptide) (PSI (0-1 scale)); higher = more stable (slower turnover). As to conditions: genetic background: wild type; temperature: 30 C.
Data set [2] relates to Saccharomyces cerevisiae. The description is as above. As for the experimental part:
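MPS profiling in S. cerevisiae of the tFT-X12 degron library: putative degron peptides plus stable controls, 12 aa, fused to the C-terminus of a sfGFP-mCherry timer. Cells are FACS-sorted into 8 mCherry/sfGFP bins and deep-sequenced. PSI runs from 0 (unstable) to 1 (stable). Backgrounds are wild type, das1Δ and doa10Δ at 30 °C, and wild type, das1Δ, cdc34-1 and cdc53-1 at 37 °C; 2-3 technical replicates each.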

Where [3] appears, read: genetic background: cdc34-1, temperature: 37 C.
Where [4] appears, read: genetic background: cdc53-1, temperature: 37 C.
Where [5] appears, read: genetic background: das1 deletion, temperature: 30 C.
The mark [6] stands for this setting: genetic background: das1 deletion, temperature: 37 C.
Setting [7] is: genetic background: doa10 deletion, temperature: 30 C.
The mark [8] stands for this setting: genetic background: wild type, temperature: 30 C.
[9] abbreviates: genetic background: wild type, temperature: 37 C.

± gives the standard deviation of the averaged measurements.
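Note: PSI is a weighted mean of sequencing reads over stability bins, variants kept only with over 10 reads, mCherry proximal and sfGFP distal, peptide attached via GGGS linker.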

In the case of WLCVFVFGIFFV, the protein stability index in the data set with Saccharomyces cerevisiae [1] amounted to 0.204 ± 0.016; with Saccharomyces cerevisiae [2] (setting [3]), 0.146 ± 0.016; in the data set with Saccharomyces cerevisiae [2] (setting [4]), 0.162 ± 0.01; in the data set with Saccharomyces cerevisiae [2] (setting [5]), 0.179 ± 0.026; with Saccharomyces cerevisiae [2] (setting [6]) it was 0.2894 ± 0.0021; with Saccharomyces cerevisiae [2] (setting [7]), 0.292 ± 0.0061. Also, the values for the protein stability index in the data set on Saccharomyces cerevisiae [2] (setting [8]) and in the data set on Saccharomyces cerevisiae [2] (setting [9]) were 0.186 ± 0.016 and 0.266 ± 0.0091, respectively.

With WLFRCFLFVVGG, the protein stability index in the data set on Saccharomyces cerevisiae [1] was found to be 0.422 ± 0.0045; in the data set with Saccharomyces cerevisiae [2] (setting [3]), 0.39 ± 0.025; with Saccharomyces cerevisiae [2] (setting [4]), 0.441 ± 0.013; in the data set on Saccharomyces cerevisiae [2] (setting [5]), 0.371 ± 0.025; in the data set on Saccharomyces cerevisiae [2] (setting [6]) it was 0.46 ± 0.0069; with Saccharomyces cerevisiae [2] (setting [7]), 0.413 ± 0.019. For the same sequence, the protein stability index with Saccharomyces cerevisiae [2] (setting [8]) amounted to 0.366 ± 0.016; with Saccharomyces cerevisiae [2] (setting [9]) it was 0.4363 ± 0.0023.

As for WLLVVCRGLVFR, the protein stability index in the data set on Saccharomyces cerevisiae [1] came to 0.319 ± 0.046; with Saccharomyces cerevisiae [2] (setting [3]), 0.227 ± 0.0051; with Saccharomyces cerevisiae [2] (setting [4]) it was 0.228 ± 0.024; in the data set on Saccharomyces cerevisiae [2] (setting [5]) it was 0.25 ± 0.036; with Saccharomyces cerevisiae [2] (setting [6]) it was 0.4124 ± 0.0027; with Saccharomyces cerevisiae [2] (setting [7]), 0.329 ± 0.023. In addition, the protein stability index in the data set with Saccharomyces cerevisiae [2] (setting [8]) was found to be 0.236 ± 0.022; in the data set on Saccharomyces cerevisiae [2] (setting [9]) it was 0.405 ± 0.018.

As to WQGWFLSLCIWV, the protein stability index was found to be 0.348 ± 0.014 in the data set with Saccharomyces cerevisiae [1]; 0.2872 ± 0.0019 in the data set on Saccharomyces cerevisiae [2] (setting [3]); 0.341 ± 0.0047 with Saccharomyces cerevisiae [2] (setting [4]); 0.3 ± 0.031 in the data set on Saccharomyces cerevisiae [2] (setting [5]); 0.404 ± 0.0047 with Saccharomyces cerevisiae [2] (setting [6]); 0.317 ± 0.0065 with Saccharomyces cerevisiae [2] (setting [7]). Besides, the values for the protein stability index with Saccharomyces cerevisiae [2] (setting [8]) and with Saccharomyces cerevisiae [2] (setting [9]) were 0.296 ± 0.024 and 0.392 ± 0.025, respectively.

On to WQVPYQRLAILF, for which the protein stability index is 0.309 ± 0.017 in the data set on Saccharomyces cerevisiae [1]; 0.603 ± 0.021 with Saccharomyces cerevisiae [2] (setting [3]); 0.656 ± 0.017 in the data set with Saccharomyces cerevisiae [2] (setting [4]); 0.555 ± 0.03 with Saccharomyces cerevisiae [2] (setting [5]); 0.681 ± 0.016 with Saccharomyces cerevisiae [2] (setting [6]); 0.215 ± 0.017 in the data set on Saccharomyces cerevisiae [2] (setting [7]). The protein stability index was 0.247 ± 0.02 with Saccharomyces cerevisiae [2] (setting [8]) and 0.346 ± 0.011 with Saccharomyces cerevisiae [2] (setting [9]).

Consider WRCLHLVYLFFH, for which the protein stability index in the data set with Saccharomyces cerevisiae [1] was found to be 0.286 ± 0.0091; in the data set on Saccharomyces cerevisiae [2] (setting [3]), 0.395 ± 0.016; in the data set with Saccharomyces cerevisiae [2] (setting [4]), 0.438 ± 0.036; in the data set on Saccharomyces cerevisiae [2] (setting [5]), 0.365 ± 0.048; in the data set with Saccharomyces cerevisiae [2] (setting [6]), 0.531 ± 0.047; in the data set with Saccharomyces cerevisiae [2] (setting [7]), 0.192 ± 0.0042. The protein stability index with Saccharomyces cerevisiae [2] (setting [8]) was 0.173 ± 0.017; in the data set on Saccharomyces cerevisiae [2] (setting [9]) it was 0.303 ± 0.013.

Regarding WRVRFRLLAGFC, the protein stability index in the data set on Saccharomyces cerevisiae [1] amounted to 0.173 ± 0.018; in the data set on Saccharomyces cerevisiae [2] (setting [3]) it was 0.347 ± 0.038; in the data set on Saccharomyces cerevisiae [2] (setting [4]), 0.4126 ± 0.0035; in the data set on Saccharomyces cerevisiae [2] (setting [5]), 0.296 ± 0.021; in the data set with Saccharomyces cerevisiae [2] (setting [6]), 0.421 ± 0.0046; in the data set on Saccharomyces cerevisiae [2] (setting [7]), 0.073 ± 0.016. In addition, the protein stability index in the data set on Saccharomyces cerevisiae [2] (setting [8]) amounted to 0.107 ± 0.027; in the data set on Saccharomyces cerevisiae [2] (setting [9]) it was 0.206 ± 0.016.

WSFPFFLLPFLF: the protein stability index with Saccharomyces cerevisiae [1] was found to be 0.296 ± 0.034; in the data set with Saccharomyces cerevisiae [2] (setting [3]), 0.393 ± 0.0059; with Saccharomyces cerevisiae [2] (setting [4]), 0.352 ± 0.0092; with Saccharomyces cerevisiae [2] (setting [5]), 0.44 ± 0.022; with Saccharomyces cerevisiae [2] (setting [6]), 0.5103 ± 0.0048; with Saccharomyces cerevisiae [2] (setting [7]) it was 0.25 ± 0.0094. Besides, the protein stability index in the data set on Saccharomyces cerevisiae [2] (setting [8]) turned out to be 0.211 ± 0.014; in the data set with Saccharomyces cerevisiae [2] (setting [9]) it was 0.305 ± 0.021.

Consider WSFYVVGRLLVN, for which the protein stability index with Saccharomyces cerevisiae [1] is 0.124 ± 0.0045; in the data set with Saccharomyces cerevisiae [2] (setting [3]), 0.33 ± 0.031; in the data set on Saccharomyces cerevisiae [2] (setting [4]), 0.383 ± 0.013; in the data set with Saccharomyces cerevisiae [2] (setting [5]), 0.287 ± 0.024; in the data set on Saccharomyces cerevisiae [2] (setting [6]) it was 0.45 ± 0.014; with Saccharomyces cerevisiae [2] (setting [7]) it was 0.106 ± 0.0031. Moreover, the protein stability index with Saccharomyces cerevisiae [2] (setting [8]) stood at 0.132 ± 0.0018; in the data set on Saccharomyces cerevisiae [2] (setting [9]), 0.154 ± 0.015.

Regarding WSHVPLAPLSCF, the protein stability index with Saccharomyces cerevisiae [1] was found to be 0.4567 ± 0.0039; with Saccharomyces cerevisiae [2] (setting [3]), 0.43 ± 0.017; in the data set on Saccharomyces cerevisiae [2] (setting [4]), 0.442 ± 0.0048; in the data set on Saccharomyces cerevisiae [2] (setting [5]) it was 0.337 ± 0.023; in the data set on Saccharomyces cerevisiae [2] (setting [6]) it was 0.477 ± 0.0073; in the data set on Saccharomyces cerevisiae [2] (setting [7]), 0.287 ± 0.0032. Besides, the figures for the protein stability index in the data set on Saccharomyces cerevisiae [2] (setting [8]) and with Saccharomyces cerevisiae [2] (setting [9]) were 0.315 ± 0.023 and 0.42596 ± 0.00033, respectively.

With WSVCLLLLGRFC, the protein stability index with Saccharomyces cerevisiae [1] was determined as 0.466 ± 0.018; in the data set on Saccharomyces cerevisiae [2] (setting [3]) it was 0.523 ± 0.013; in the data set on Saccharomyces cerevisiae [2] (setting [4]), 0.604 ± 0.011; in the data set on Saccharomyces cerevisiae [2] (setting [5]), 0.455 ± 0.026; in the data set on Saccharomyces cerevisiae [2] (setting [6]), 0.617 ± 0.026; in the data set on Saccharomyces cerevisiae [2] (setting [7]) it was 0.347 ± 0.0005. Moreover, the values for the protein stability index in the data set on Saccharomyces cerevisiae [2] (setting [8]) and with Saccharomyces cerevisiae [2] (setting [9]) were 0.381 ± 0.024 and 0.554 ± 0.026, respectively.
